Test results: publication PMC6499999

Experiments:
[1] = biological target: RelSt3 relaxase encoded by ICESt3 from Streptococcus thermophilus (Streptococcus thermophilus (ICESt3)); assay: cross-linking; 5 ug RelSt3 in 20 uL with 0.001 to 0.1% glutaraldehyde, 15 min at room temperature, stopped with glycine; 10% SDS-PAGE, Coomassie
[2] = biological target: RelSt3 relaxase encoded by ICESt3 from Streptococcus thermophilus (Streptococcus thermophilus (ICESt3)); assay: SEC; calibrated Superdex 200 gel filtration, final step of purification; single elution peak at 72.4 mL, apparent molecular weight about 88 kDa against a predicted 48.5 kDa
[3] = biological target: RelSt3 relaxase encoded by ICESt3 from Streptococcus thermophilus (Streptococcus thermophilus (ICESt3)); assay: AUC; sedimentation velocity at 1 and 5 uM in 20 mM Tris-HCl pH 7.5, 500 mM NaCl, 25 °C, 42,000 rpm, absorbance at 280 nm; c(s) analysis with Sedfit

- stoichiometry N [1]: 2
- stoichiometry N [2]: 2
- stoichiometry N [3]: 2
Substance: RelSt3 relaxase encoded by ICESt3 from Streptococcus thermophilus (enzyme)
